According to patent US20160289321A1 (SHANGHAI HENGRUI PHARMACEUTICAL, published 2016):
Changes are numbered by the printed parent chain. Read-outs that look alike come from different tables or passages of the source.

T1: Mouse IL-17A (Mu IL-17A) (mouse, UniProt Q62386 26-158)
T1 sequence (looked up): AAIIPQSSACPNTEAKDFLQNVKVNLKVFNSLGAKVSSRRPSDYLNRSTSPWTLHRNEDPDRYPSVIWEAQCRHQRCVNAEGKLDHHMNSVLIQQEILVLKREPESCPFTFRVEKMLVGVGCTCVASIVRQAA

T2: Rat IL-17A (rat, UniProt Q61453 18-150, limits assumed)
T2 sequence (looked up): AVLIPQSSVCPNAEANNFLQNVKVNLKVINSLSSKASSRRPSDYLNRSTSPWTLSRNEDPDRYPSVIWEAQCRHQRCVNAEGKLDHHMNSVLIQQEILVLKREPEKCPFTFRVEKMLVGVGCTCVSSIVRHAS

B1: Hu049-18 (antibody, V domains shown)
VH: EVQLVQSGAEVKKPGASVKVSCKASGYTFTDYEVHWVRQAPGQGLEWMGVIDPGTGGVAYNQKFEGRVTMTADTSTSTAYMELRSLRSDDTAVYYCTRYSLFYGSSPYAMDYWGQGTLVTVSS
VL: EIVLTQSPDFQSVTPKEKVTITCSASSSVNYMHWFQQKPDQSPKLWIYRTSNLASGVPSRFSGSGSGTDYTLTINSLEAEDAATYYCQQRSSYPWTFGQGTKLEIKR
notes: Humanized mAb049
B2: Hu049-19 (antibody, V domains shown)
VH: B1 VH with M48I
VL: B1 VL
notes: Humanized mAb049
B3: Hu049-20 (antibody, V domains shown)
VH: B1 VH with M48I, V68A, M70L, T74D, S77N
VL: B1 VL
B4: Hu049-17 (antibody, V domains shown)
VH: B1 VH with A72T
VL: B1 VL
notes: Humanized mAb049
B5: IL17-mAb049 (antibody, V domains shown)
VH: HVQLQQSGADLVRPGASVTLSCKASGYIFTDYEVHWVKQTPVHGLEWIGVIDPGTGGVAYNQKFEGKATLTADDSSNTAYMELRSLTSEDSAVYYCTRYSLFYGSSPYAMDYWGQGTSVTVSS
VL: QIVLTQSPAIMSASPGEKVTITCSASSSVNYMHWFQQKPGTSPKLWIYRTSNLASGVPVRFSGSGSGTSYSLTISRMEAEDAATYYCQQRSSYPWTFGGGTNLEIK
notes: Murine monoclonal antibody from a hybridoma; also called murine IL-17A mouse antibody mAb049

Legend:
[1] = molecular target: T1, Mouse IL-17A (Mu IL-17A); test: SPR (Biacore X100), antibody captured on the chip, mouse IL-17 as analyte
Protocol: (§1) 2. Binding kinetics Test: FC1 (Flow cell 1) was used as the reference channel, FC2 (Flow cell 2) was used as the sample channel, and murine or humanized control antibody or the antibody of the present invention was captured in the FC2 channel at 300RU, followed by the injection of different concentrations of IL-17 (including hIL-17A, MuIL-17, Rat IL-17). Cycle conditions were: injecting analytes into all FC channels at 30 μl/min for 3min, dissociation for 20 min, injecting 10 mM Glycine, pH 1.5, for 60 s (at rate of 10 μl/min) for surface regeneration. The difference between the signal with captured antibody and the signal without captured antibody was calculated using Biacore X100 evaluation software ver 2.0 (Biacore), and the running buffer was 10 mM Hepes, […], 3 mM EDTA, 0.05% Tween-20.
(§2) 2. Humanized IL-17 antibodies obtained from Example 2 were tested using the above method, and the results were as follows: […]

[2] = molecular target: Cyno IL-17A (cynomolgus, UniProt A0A2K5TTB0 24-155); test: cell-based or functional assay
Chain of Cyno IL-17A (A0A2K5TTB0 entry or part of it): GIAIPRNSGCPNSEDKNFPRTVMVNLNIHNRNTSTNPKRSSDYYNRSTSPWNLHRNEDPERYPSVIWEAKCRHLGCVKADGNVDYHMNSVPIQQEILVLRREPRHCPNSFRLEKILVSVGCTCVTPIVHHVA

[3] = molecular target: T3, Recombinant human IL-17A/F (rhIL-17A/F), R&D System Cat No.5194-IL/CF (human, UniProt Q16552 20-155; Q96PD4 31-163, limits assumed); test: cell-based or functional assay
T3 sequence (Q16552 20-155 limits assumed, chain 1 of 2): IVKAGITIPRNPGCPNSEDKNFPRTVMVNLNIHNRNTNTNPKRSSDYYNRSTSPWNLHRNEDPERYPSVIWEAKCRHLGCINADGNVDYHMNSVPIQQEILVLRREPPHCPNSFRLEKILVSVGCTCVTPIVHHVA
T3 sequence (Q96PD4 31-163 limits assumed, chain 2 of 2): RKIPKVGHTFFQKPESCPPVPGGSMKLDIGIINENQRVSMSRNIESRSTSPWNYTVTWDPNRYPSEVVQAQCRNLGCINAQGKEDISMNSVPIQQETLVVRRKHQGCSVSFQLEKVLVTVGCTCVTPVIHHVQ

[4] = molecular target: T4, Recombinant human IL-17A (rhIL-17A), R&D Systems Cat.No.317-ILB (human, UniProt Q16552 20-155, limits assumed); test: cell-based or functional assay
T4 sequence (Q16552 20-155 limits assumed): as the sequence (Q16552 20-155 limits assumed, chain 1 of 2) above

[5] = molecular target: T2, Rat IL-17A; test: SPR (Biacore X100), antibody captured on the chip, rat IL-17 as analyte
Protocol: as §1, §2

[6] = molecular target: T5, Human IL-17A (hIL-17A), expressed in HEK293E (human, UniProt Q16552 24-155); test: SPR (Biacore X100), antibody captured on the chip, IL-17A as analyte
T5 sequence (Q16552 24-155 limits assumed): as the sequence (A0A2K5TTB0 entry or part of it) above, with A3T, S8P, S34N, V77I, K78N, R104P counted along it
Protocol: as §1, §2

[7] = molecular target: T5, Human IL-17A (hIL-17A), expressed in …; test: as above; remark: listed apart in the source
Protocol: as §1
1. Hybridomas obtained in Example 1 were tested using the above method, and the results were as follows: […]

[8] = molecular target: T6, biotin-labeled IL-17A (human, UniProt Q16552 24-155, limits assumed, biotin-labeled (sites not given)); test: receptor blocking ELISA (RBA): antibody titrated against biotin-labeled IL-17A binding to captured IL-17RA-Fc
T6 construct: also called huIL-17
T6 sequence (Q16552 24-155 limits assumed): as the sequence (A0A2K5TTB0 entry or part of it) above, with A3T, S8P, S34N, V77I, K78N, R104P counted along it
Protocol: 6. The positive controls, Lilly mAb and Novartis mAb, or antibodies of the present invention were diluted at a 1:5 ratio, with an initial concentration of 40 μg/ml. mIgG was diluted using the same method. 50 μl of diluted positive control, murine antibody of the present invention, or mIgG were added to each well, and, 50 μof 0.2nM biotin-labeled IL-17A were added to the wells containing diluted positive control or the antibody of the present invention, mixed gently and the plates were thermostatically incubated at 37° C. for 1 h.
7. The plates were washed with PBST three times; 8. 100 μl of HRP-labeled streptavidin complex (1:5000) were added to each well, and the plates were thermostatically incubated at 37° C. for 1 h;

[9] = molecular target: T3, Recombinant human IL-17A/F …; test: cell-based or functional assay; remark: listed apart in the source
[10] = molecular target: T4, Recombinant human IL-17A (rhIL-17A), …; test: cell-based or functional assay; remark: listed apart in the source
[11] = molecular target: T5, Human IL-17A (hIL-17A), expressed in …; test: indirect ELISA, hIL-17A or hIL-17A/F on streptavidin plates, OD450 against Lilly mAb and Novartis mAb
Protocol: 6. The positive controls, Lilly mAb and Novartis mAb, or murine mAbs antibodies of the present invention were titrated at a 1:5 dilution, with an initial concentration of 1 μg/ml. 100 μl of diluted positive control or murine antibody of the present invention were added to each well, and the plates were thermostatically incubated at 37° C. for 1 h. Each concentration was tested in duplicate;
10. The OD value at a wavelength of 450 nm was read on an ELISA microplate reader (Molecular Devices, Spectra Max).
11. The OD values of the murine mAb antibodies were compared to those of the positive controls. Monoclonal cell lines with a ratio greater than 1, including IL17-mAb049, were screened.

| Binder | Kd [1] [nM] | Cyno IL-17A (bioassay IC50) [2] [nM] | huIL-17A/F Bioassay (IC50, nM) [3] [nM] | huIL-17 Bioassay (IC50, nM) [4] [nM] | Kd [5] [nM] | Kd [6] [pM] | Kd [7] [nM] | IC50 [8] [nM] | huIL-17A/F Bioassay (IC50, nM) [9] [nM] | huIL-17 Bioassay (IC50, nM) [10] [nM] | ratio of OD value to that of the positive controls [11] |
| --- | --- | --- | --- | --- | --- | --- | --- | --- | --- | --- | --- |
| B1 | 0.0681 | 0.033 | 0.684 | 0.04 | 0.477 | < 1 |  |  |  |  |  |
| B2 | 0.0771 | 0.039 | 0.411 | 0.066 | 0.06 | 2.68 |  |  |  |  |  |
| B3 |  | 0.028 | 0.674 | 0.065 |  |  |  |  |  |  |  |
| B4 | 0.137 | 0.03 | 0.406 | 0.061 | 1.06 | < 1 |  |  |  |  |  |
| B5 |  |  |  |  |  |  | 0.0262 | 0.07 | 0.46 | 0.04 | 1 |
